Reference: patent US20030148264A1, “Phage displayed PDZ domain ligands” (GENENTECH, INC., priority 2001, published 2003)

What was measured:
PDZ 2 of MAGI-3 = target: T1, PDZ 2 of MAGI-3 (Homo sapiens, UniProt Q5TCQ9); assay: GST-PDZ co-precipitation of proteins from transfected HEK 293 cell extracts; format: binding; conditions: extracts from transfected HEK 293 cells; FIG. 6
T1 construct: made in house; host or cells: E. coli
T1 sequence (Q5TCQ9 584-707 isoform Q5TCQ9-2): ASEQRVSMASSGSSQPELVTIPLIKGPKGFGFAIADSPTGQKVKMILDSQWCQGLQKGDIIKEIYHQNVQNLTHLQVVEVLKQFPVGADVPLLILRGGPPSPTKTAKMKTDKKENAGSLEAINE
Description: (§1) HEK 293 (293) cells grown in high glucose Dulbeco's Modified Eagle Medium (DMEM), 10% fetal calf serum, 1× non-essential amino acid supplement, 1×L-glutamine supplement, 10 mM HEPES (pH 7.4) and penicillin/streptomycin (all from Life Technologies) to ˜80% confluence were transfected with 2 μg DNA/35 mm diameter well (for example, DNAs encoding the sequences described in EXAMPLE 5.0) using Fugene reagent (Roche Biochemical). 24 hours post-transfection, cells were washed once with PBS and then scraped into 1 ml/well of 20 mM Tris (pH 7.5), 1% Triton X-100, 200 mM NaCl, 1 mM dithiothreitol, and protease inhibitor cocktail with EDTA (Roche Biochemical, catalog #1836145) and homogenized gently with three to five strokes in a dounce (Wheaton) using a loose glass pestle. Extracts were centrifuged at 12,000 rpm in a tabletop centrifuge at 4° C. for 10 minutes; the supernatant was combined with an equal volume of homogenization buffer without NaCl to achieve a final salt concentration of 100 mM and frozen at −70° C. until use. […] Binding of 293 cell-expressed proteins was detected by immunoblot analysis using antibodies against GFP (Clontech) and Her 2 (Santa Cruz Biotechnology).
(§2) Amino acids 1217-1371 of ERBIN and 584-707 corresponding to PDZ 2 of MAGI-3 (Sidhu et al., 2000); were expressed in E. coli as GST fusions. […] Equal volumes of extract and depleted extract (sup.) were analyzed.

ERBIN PDZ domain [1] = target: T2, ERBIN PDZ domain (Homo sapiens, UniProt Q96RT1); assay: as above; format: binding; design: made in house; host or cells: E. coli; conditions: extracts from transfected HEK 293 cells; FIG. 6
Description: as §1, §2
Target sequence in this assay (Q96RT1 1258-1412): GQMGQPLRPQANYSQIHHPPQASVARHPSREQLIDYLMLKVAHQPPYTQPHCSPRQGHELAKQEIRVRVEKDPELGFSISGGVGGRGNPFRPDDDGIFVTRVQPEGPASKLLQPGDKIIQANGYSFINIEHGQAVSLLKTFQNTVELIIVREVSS

ERBIN PDZ domain [2] = target: T2, ERBIN PDZ domain; assay: Co-localization of ERBIN PDZ and δ-catenin in transfected HEK 293 cells; format: cell-based; design: expressed in transfected cells; host or cells: HEK 293; conditions: co-transfected HEK 293 cells; FIG. 7
Description: HEK 293 cells were grown to 70% confluence on collagen IV coated coverslips and then transfected with 1.4 μg of GST-ERBIN PDZ in pcDNA 3.1/V5/His and 1.1 μg of the indicated EGFP construct. 24 to 48 hours post-transfection, the cells were washed in PBS, fixed for 30 minutes in 2.5% formaldehyde, permeabilized with 0.25% Triton X-100 in PBS, and blocked with 5% donkey serum in PBS. The ERBIN PDZ domain was visualized by staining with monoclonal anti-V5 antibody (Invitrogen) and Cy3-conjugated secondary antibodies (Jackson Immunolabs) whereas GFP fusions were visualized directly. Images were taken on a standard fluorescence microscope using a 40× objective and digital CCD camera and SPOT imaging software (Diagnostic Instruments, Inc.; Sterling Heights, Mich.).
The ERBIN PDZ domain was co-transfected into HEK 293 E cells with EGFP, human δ-catenin or human δ-catenin missing the six C-terminal amino acids (FIG. 7).
Target sequence in this assay (Q96RT1 1314-1412): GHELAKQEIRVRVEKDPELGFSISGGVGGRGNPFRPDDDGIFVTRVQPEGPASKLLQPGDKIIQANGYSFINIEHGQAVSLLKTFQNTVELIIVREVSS

binding to / precipitation by GST-MAGI-3 PDZ 2 (PDZ 2 of MAGI-3): not to PDZ 2 of MAGI-3
binding to / precipitation by GST-ERBIN PDZ (ERBIN PDZ domain [1]): binds strongly
B1: δ-catenin: member of the Armadillo family, expressed as EGFP fusion in HEK 293 cells; candidate ERBIN PDZ ligand (protein)
chain: MFARKPPGAAPLGAMPVPDQPSSASEKTSSLSPGLNTSNGDGSETETTSAILASVKEQELQFERLTRELEAERQIVASQLERCKLGSETGSMSSMSSAEEQFQWQSQDGQKDIEDELTTGLELVDSCIRSLQESGILDPQDYSTGERPSLLSQSALQLNSKPEGSFQYPASYHSNQTLALGETTPSQLPARGTQARATGQSFSQGTTSRAGHLAGPEPAPPPPPPPREPFAPSLGSAFHLPDAPPAAAAAALYYSSSTLPAPPRGGSPLAAPQGGSPTKLQRGGSAPEGATYAAPRGSSPKQSPSRLAKSYSTSSPINIVVSSAGLSPIRVTSPPTVQSTISSSPIHQLSSTIGTYATLSPTKRLVHASEQYSKHSQELYATATLQRPGSLAAGSRASYSSQHGHLGPELRALQSPEHHIDPIYEDRVYQKPPMRSLSQSQGDPLPPAHTGTYRTSTAPSSPGVDSVPLQRTGSQHGPQNAAAATFQRASYAAGPASNYADPYRQLQYCPSVESPYSKSGPALPPEGTLARSPSIDSIQKDPREFGWRDPELPEVIQMLQHQFPSVQSNAAAYLQHLCFGDNKIKAEIRRQGGIQLLVDLLDHRMTEVHRSACGALRNLVYGKANDDNKIALKNCGGIPALVRLLRKTTDLEIRELVTGVLWNLSSCDALKMPIIQDALAVLTNAVIIPHSGWENSPLQDDRKIQLHSSQVLRNATGCLRNVSSAGEEARRRMRECDGLTDALLYVIQSALGSSEIDSKTVENCVCILRNLSYRLAAETSQGQHMGTDELDGLLCGEANGKDAESSGCWGKKKKKKKSQDQWDGVGPLPDCAEPPKGIQMLWHPSIVKPYLTLLSECSNPDTLEGAAGALQNLAAGSWKWSVYIRAAVRKEKGLPILVELLRIDNDRVVCAVATALRNMALDVRNKELIGKYAMRDLVHRLPGGNNSNNTASKAMSDDTVTAVCCTLHEVITKNMENAKALRDAGGIEKLVGISKSKGDKHSPKVVKAASQVLNSMWQYRDLRSLYKKDGWSQYHFVASSSTIERDRQRPYSSSRTPSISPVRVSPNNRSASAPASPREMISLKERKTDYECTGSNATYHGAKGEHTSRKDAMTAQNTGISTLYRNSYGAPAEDIKHNQVSAQPVPQEPSRKDYETYQPFQNSTRNYDESFFEDQVHHRPPASEYTMHLGLKSTGNYVDFYSAARPYSELNYETSHYPASPDSWV
modifications: left off: large carriers
notes: member of the Armadillo family, expressed as EGFP fusion in HEK 293 cells; candidate ERBIN PDZ ligand
co-localization with / recruitment of ERBIN PDZ domain (ERBIN PDZ domain [2]): complete recruitment of ERBIN PDZ to the cell junction
